Data: US20040115656A1

Molecular target: androgen receptor (UniProt P10275)
Test: cell-based or functional assay

Sequence of UniProt P10275 (P10275 whole entry): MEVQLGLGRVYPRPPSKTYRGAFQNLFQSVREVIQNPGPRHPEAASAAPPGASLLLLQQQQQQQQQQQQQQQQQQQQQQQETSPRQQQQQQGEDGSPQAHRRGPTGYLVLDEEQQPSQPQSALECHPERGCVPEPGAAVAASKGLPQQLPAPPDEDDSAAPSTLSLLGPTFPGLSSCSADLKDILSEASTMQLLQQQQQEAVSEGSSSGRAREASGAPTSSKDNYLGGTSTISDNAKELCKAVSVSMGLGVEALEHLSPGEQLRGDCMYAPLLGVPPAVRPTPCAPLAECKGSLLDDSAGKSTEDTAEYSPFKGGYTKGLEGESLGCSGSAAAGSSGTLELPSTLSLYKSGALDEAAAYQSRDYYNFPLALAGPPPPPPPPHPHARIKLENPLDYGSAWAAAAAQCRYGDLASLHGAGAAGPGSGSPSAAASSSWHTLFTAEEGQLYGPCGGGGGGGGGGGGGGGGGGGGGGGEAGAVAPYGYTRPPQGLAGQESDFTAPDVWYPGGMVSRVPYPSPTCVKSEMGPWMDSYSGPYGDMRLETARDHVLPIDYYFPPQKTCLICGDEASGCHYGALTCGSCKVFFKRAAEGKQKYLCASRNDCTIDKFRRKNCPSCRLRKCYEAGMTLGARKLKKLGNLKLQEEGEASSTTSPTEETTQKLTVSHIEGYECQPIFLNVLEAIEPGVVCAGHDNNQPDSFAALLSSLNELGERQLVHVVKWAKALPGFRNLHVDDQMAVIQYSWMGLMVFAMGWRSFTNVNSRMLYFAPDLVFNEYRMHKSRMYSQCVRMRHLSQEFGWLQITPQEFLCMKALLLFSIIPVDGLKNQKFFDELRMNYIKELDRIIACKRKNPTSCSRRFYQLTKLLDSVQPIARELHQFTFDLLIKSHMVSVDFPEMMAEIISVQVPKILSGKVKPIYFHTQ

luciferase activity of AFP promoter (ARE) reporter in MCF7 and G2 cells (times (relative to the control reporter)): 2
Substance: human androgen receptor down-regulatory-associated protein
